{
  "source": "patent US20240287489A1",
  "about": "“CHITINOLYTIC ENZYME-BASED PLANT PROTECTION AGENTS” (GLOBACHEM NV, priority 2021, published 2024)",
  "key": {"[1]": {"experiment": "Temperature, pH and NaCl optima and temperature stability of recombinant chitinases (reducing end assay)", "format": "biochemical", "details": "for Optimum pH / Optimum salinity / Optimum temperature: chitin powder; for Optimum pH: 30° C., pH 4-11; for Optimum salinity: pH 8, 30° C., 0-20% w/v NaCl; for Optimum temperature: pH 8, range 10-60° C.", "procedure": "All enzymes were first characterized regarding their temperature and pH-optima as well as the optimum NaCl content as the enzymes were isolated from a sea-water microorganism. As the future intention is to integrate these novel enzymes in a degradation processes of natural chitin, all parameters were determined using chitin powder as a substrate instead of pre-treated analogs such as colloidal chitin, glycol chitin or artificial fluorogenic substrates. […] (FIG. 5A). Next, enzyme temperature stability was investigated (FIG. 51). […] Enzyme C1 retained a 50% residual activity after 240 min incubation at 60° C., while the activity of the other chitinases dropped below 50% after 15 min and remained on that level.\nGiven the marine origin of the P. orarium strain, the effect of salt was also evaluated, testing the addition of NaCl to the standard buffer. […] Increasing NaCl amounts up to 20% (w/v) reduced enzyme activity substantially to 10% for C2, 4 and 5, with C1 and C3 showing highest tolerance (65% activity).\nFor the determination of enzymatic activity of recombinant chitinases, a reducing end assay was carried out [Svein et al., Carbohydr Polym, 2004. 56(1): p. 35-39.]. Fractions containing chitinases were incubated with 5% (w/v) chitin powder extracted from shrimp shells (˜400.000 g/mol; Carl Roth) in MAT buffer for 2 h in an overhead shaker at ambient temperature (standard conditions). Samples were centrifuged at 13000×g for 2 min and 40 μl of the supernatant was mixed with 40 μl 0.5 M NaOH and 40 μL of a reagent containing 1.5 mg/ml 3-Methyl-2-benzothiazolinonhydrazon and 0.75 mg/ml Dithiothreitol. Samples were incubated at 80° C. for 15 min and then thoroughly mixed with 80 μl of 0.5% (w/v) FeNH4(SO4)2)×12H2O, 0.5% (w/v) sulfamic acid and 0.25 M HCl. After cooling down to room temperature, 100 μl of the samples were measured at 620 nm. A calibration curve of N-acetyl-glucosamine was constructed freshly for each measuring cycle. One unit [U] was defined as the amount of enzyme required to release 1 μmol of reducing sugars per hour.\n(§1) Enzyme samples were incubated at different temperature (10-60° C., 10° C. increment) and pH (4-11, increment 1) using different buffer systems (Acetate, Tris-HCl, MES, total molar concentration 100 mM), as well as NaCl content (0, 1. 2.5, 5, 10 and 20% w/v) to determine optimum reaction conditions. All experiments were carried out at 1.0 ml scale using 2 μM of the respective enzymes and a 5% (wv) suspension of chitin powder extracted from shrimp shells (˜400.000 g/mol; Carl, Roth) in 100 mM MAT buffer. For the determination of the substrate specificity, chitin powder (5% w/v), glycol chitin (10% v/v), colloidal chitin (5% w/v), chitosan [DA 15-25%, medium molecular weight, Sigma-Aldrich] (5% w/v) and microcrystalline cellulose powder (Sigma Aldrich) (5% w/v) were investigated, respectively. The effect of several potential co-factors on activity was elucidated at a concentration of 1 mM. Additionally, the effect of detergents [SDS 0.5% (w/v), Tween-20 and Triton X-100 both at 0.5% (v/v)] and chemicals (Imidazole 100 mM, EDTA 1 mM) on enzymatic activity was assessed. Samples were incubated in a thermomixer for 16 h at 900 rpm. After incubation, samples were analyzed using the enzyme assay. Thermostability was assessed after incubation of recombinant chitinases at 60° C. for different durations followed by the quantification of residual enzyme activity under standard assay conditions."}, "[2]": {"experiment": "Substrate specificity, reducing end assay", "format": "biochemical", "details": "in % activity of chitin powder; 16 h at optimum conditions, 50 mg/ml substrate", "procedure": "(§2) Different chitinous substrates were tested to assess the substrate affinity of the novel chitinases relative to untreated chitin powder. […] As expected, the conversion of colloidal chitin is more efficient compared to chitin powder as it provides an overall smaller particle size and thereby larger surface area. Chitosan powder (degree of acetylation: 15%) was also degraded efficiently and high chitosanase activity was observed especially for C1, C3, C4 and C5. Merely basal activity was detected when cellulose was utilized as a substrate for all enzymes.\nas §1"}, "[3]": {"experiment": "Substrate specificity, reducing end assay", "format": "biochemical", "details": "in % activity of chitin powder; 16 h at optimum conditions, 50 mg/ml substrate", "procedure": "as §2\nThe preparation of colloidal chitin was similar to the method described by Murthy and Bleakley with some minor differences [Murthy et al., Microbiol., 2012. 10(2): p. 1-5.]. Chitin powder (Carl Roth) was dissolved in concentrated hydrochloric acid (HCl) (5 g in 100 mL) and stirred at 4° C. for 24 h, after which the mixture was centrifuged at 4000×g for 15 min at 4° C. The precipitate was washed to neutral pH with distilled water and stored at 4° C.\nas §1", "remark": "listed apart in the source"}, "[4]": {"experiment": "TLC analysis of cleavage patterns with chitin standard molecules", "format": "biochemical", "details": "for hydrolysis products from chitin pentamers / hydrolysis products from chitin trimers: 4 mg/ml, 16 h, TLC; for cleavage mechanism (exo-/endo-chitinase activity): TLC of products from oligomeric or polymeric chitin substrates", "procedure": "monomeric oligomers. Chitosan was degraded to a crude mixture of multiple oligomers ranging from dimers to pentamers and even larger undefined yet water-soluble fragments that migrated slightly from the starting point. Further analysis of the cleavage patterns was carried out using chitin standard molecules of DP2-DP6 and incubating them at 4 mg/ml concentration with the individual enzymes (FIG. 9).\nDimeric chitin molecules were not converted by any of the enzymes. […] All chitinases degraded chitin tetramers to dimers as a single product. […] Chitin hexamers were degraded to dimers and trimers. Although all chitinases are different in their structure and present different glycosyl hydrolase domains hydrolysis products in general were similar.\nC2, 4 and 5 yielded similar product patterns when incubated with insoluble substrates. […] The presented data underline that the novel chitinases are all suited for the degradation of powdery chitin without any further harsh chemical pre-treatment.\nHydrolysis products were analyzed using 10×10 cm TLC Silica gel 60 F254 plates (Merck, Darmstadt, Germany) and a mixture of butanol:methanol:25% ammonia:H2O (5:4:2:1) as mobile phase. A total sample volume of 0.5 μl was applied in 0.25 μl spots. Chitin standard sugars (Megazyme, Chicago, USA) (5 mg/ml) were applied to the plate (0.5 μL in 0.25 μL spots) as size standard for the determination of the DP. After separation, the plate was air-dried and the developing solution (200 ml Acetone, 30 ml phosphoric acid (85%), 4 ml aniline, 4 g diphenylamine) was sprayed on the plate followed by spot visualization at 300° C. using a heat gun."}, "Gibberella zeae": {"system": "Gibberella zeae", "format": "cell-based", "set-up": "key: xx = no growth/strong inhibition; x = small inhibition", "details": "start concentration 100 μg/ml"}, "Fusarium oxysporum": {"system": "Fusarium oxysporum", "experiment": "Minimum inhibitory concentration (MIC) test on fungal pathogens", "format": "cell-based", "set-up": "key: xx = no growth/strong inhibition; x = small inhibition", "details": "start concentration 100 μg/ml"}},
  "data": [
    {"molecule": "Chitinase 3: chitinolytic enzyme from P. orarium, SEQ ID NO: 3, recombinant with PelB signal peptide and 6×His tag (protein, listed as Photobacterium orarium, PelB signal peptide; 6xHis tag; Chitinase 3) MALAAPGTPQLAWMETDYAIVEVDQAATAYKDLVTVKNAADVPVAWQRYSGETADHWKVKLNGNVAFEESINPASSGAGSTTLSITQGGQYALTVELCSGSGAEEACSSSPATNIVVADTDGSHLDPLPMNVDPNNGTYSTPADTVVGAYFVEWGVFGRKFTVDKIPAQNLTHILYGFIPVCGPNESLGEIESGNSLAALNRACAGTPDFEVAIHDPWAAVQMPQPQSGHTYSTPYKGNYGQLMALKQRYPDLKVIPSIGGWTLSDPFFSFTDKSKRDVFVASVKKFLQTWKFFDGVDIDWEFPGGKGANTTLGDPVNDGPAYVALMRELRTMLDGLEAETGRQFELTSAIGVGYDKIDVVNYAEASQYMDYIFNMSYDFYGGWSNVTGHQTALNCGSHLTADQCNGTGVDENGEPRQGPAYTTAHGVERLLAQGVPANKLVVGAAMYGRGWTGVTQASMTDPSNPMTGVGNGAVAGSWEAGVIDYKDVVTRYENKAGVVLGYDEQAEAPWAYDPSNGDLVTYDSPRSIMAKGQYVRDLGLAGLFAWEIDADNGDILNAMQESLAGAPAGNRAPVARAGSDQQVNTAATVTLNGSSSTDSDGQIAGYQWVQTSGPALTLNGANTASATISVPDVTVDTQYVFTLTVTDNEGATATDSITVTAKAPGAQNTAPVASLTGPGTANADDVITLDASQSTDADGDTLTYDWTVPAGVNAVINGSSLSFTADSYTTDTALSFSVSVSDGTASDAASLTVTIAKDESGTGGEGDFPAYVEGTAYQAGDQVSNGGVNFECKPYPYSGWCSGAAWAYEPGVGVYWQDAWTQLIE", "values": [
      {"measurement": "Optimum pH", "setting": "[1]", "value": 8},
      {"measurement": "Optimum salinity", "setting": "[1]", "value": 5, "unit": "% NaCl"},
      {"measurement": "Optimum temperature", "setting": "[1]", "value": 30, "unit": "°C"},
      {"measurement": "Relative activity, Cellulose", "setting": "[2]", "value": "9.4 ± 0.9", "unit": "%"},
      {"measurement": "Relative activity, Chitin", "setting": "[2]", "value": 100, "unit": "%"},
      {"measurement": "Relative activity, Chitosan", "setting": "[2]", "value": "113.4 ± 9.0", "unit": "%"},
      {"measurement": "Relative activity, Colloidal chitin", "setting": "[3]", "value": "133.4 ± 6.5", "unit": "%"},
      {"measurement": "hydrolysis products from chitin pentamers", "setting": "[4]", "value": "dimers and monomers"},
      {"measurement": "hydrolysis products from chitin trimers", "setting": "[4]", "value": "dimers and monomers"},
      {"measurement": "cleavage mechanism (exo-/endo-chitinase activity)", "setting": "[4]", "value": "exo-chitinase activity"},
      {"measurement": "growth inhibition of Gibberella zeae in the MIC test", "setting": "Gibberella zeae", "value": "x"},
      {"measurement": "growth inhibition of Fusarium oxysporum in the MIC test", "setting": "Fusarium oxysporum", "value": "xx"}
    ]},
    {"molecule": "Chitinase 1: chitinolytic enzyme from P. orarium, SEQ ID NO: 1, recombinant with PelB signal peptide and 6×His tag; run 19 = 2 μM alone (protein, listed as Photobacterium orarium, PelB signal peptide; 6xHis tag; Chitinase 1, run 19 = 2 μM alone) MAAPGTPQIAWMETDYAIVEVDQAASAYKSLITVKPAAEVPVAWQRYSGETADLWKVKLNGNVVFEQSIAPASSGAGSTTLSVAQGGQYAMTVELCSGTGAAQACTSSAATNIVVADTDGSHLDPLPMNVDANNGNYTTPANTVVGAYFVEWGVYGRKFSVDNIPAQNLTHILYGFIPICGPNESLGEIENGNSLAALNRACQGTPDYEVVIHDPWAAVQMPQPQSGHTHSTPYKGTYGQMMALKQRYPDLKIVPSVGGWTLSDPFYSFTDKAKRDIFVASVKKFLKTWKFFDGVDIDWEFPGGKGANANLGDPVNDGPAYVALMRELRVMLDELEAETGRQYELTSAIGVGYDKIDVVNYADAVQYMDYIFAMTYDFFGGWNNVPGHQTALFCGSHMSADVCNGTGVDENGVPRQGPAYTAAHGIDRLLAQGVPANKLVLGTAMYARGWTGVTEASMTDPTNPMTGTGNGMVPGSWEPGVIDYKDVVTDYINNAAVTKGYDAQAEAPWAYNPSNGNLITYDDRRSVLAKGQYVRNLGLAGLFAWEIDADNGDILNAMQDSLAGGGGNYAPVAKAGADQVVNGAASVTLDGSASSDRDGQIVSYQWTQTSGPALTLTGSDTATATVAVPEVTADTQYAFTLTVTDNAGDTATDSVTVTAKAPGSNTAPVVAVSGPATASAGDTVVLDASQSSDADGDTLTFTWTVPAGVNATVNGATVSFVADSYTVDTPLNFTVAVSDGTDSVTESVTVTVLKDGGSTGCTNAWATGGVYNSGDIVTHSGKSWKAKWWTTGEEPGTTGEWGVWEDLGAANCQIE", "values": [
      {"measurement": "residual activity", "setting": "[1]; after 240 min incubation at 60° C.", "value": 50, "unit": "%"},
      {"measurement": "Optimum pH", "setting": "[1]", "value": 8},
      {"measurement": "Optimum salinity", "setting": "[1]", "value": 1, "unit": "% NaCl"},
      {"measurement": "Optimum temperature", "setting": "[1]", "value": 30, "unit": "°C"},
      {"measurement": "Relative activity, Cellulose", "setting": "[2]", "value": "14.3 ± 5.7", "unit": "%"},
      {"measurement": "Relative activity, Chitin", "setting": "[2]", "value": 100, "unit": "%"},
      {"measurement": "Relative activity, Chitosan", "setting": "[2]", "value": "117.1 ± 9.1", "unit": "%"},
      {"measurement": "Relative activity, Colloidal chitin", "setting": "[3]", "value": "159.9 ± 4.8", "unit": "%"},
      {"measurement": "hydrolysis products from chitin pentamers", "setting": "[4]", "value": "dimers and monomers"},
      {"measurement": "hydrolysis products from chitin trimers", "setting": "[4]", "value": "dimers and monomers"},
      {"measurement": "cleavage mechanism (exo-/endo-chitinase activity)", "setting": "[4]", "value": "exo-chitinase activity"},
      {"measurement": "growth inhibition of Gibberella zeae in the MIC test", "setting": "Gibberella zeae", "value": "x"},
      {"measurement": "growth inhibition of Fusarium oxysporum in the MIC test", "setting": "Fusarium oxysporum", "value": "xx"}
    ]}
  ]
}
